Measurements from patent publication US20260043807A1.
Read-outs that look alike come from different tables or passages of the source.

Columns and labels:
Goat IgG [1] = experiment: photo-crosslinking, 365 nm 2 hrs, SDS-PAGE (FIG. 6)
Goat IgG [2] = experiment: as above; remark: listed apart in the source

In the case of “Protein L C* domain T46BPA (designed binder)”, the conjugation efficiency (Goat IgG [1]) is reported as 50% and the conjugation efficiency (Goat IgG [2]) is reported as 30 to 50%.
